Test results: publication PMC9076861

Target: human insulin receptor overexpressed on Rat-1 cells (Rat-1/hIR) (human) (UniProt P06213)

- EC50 of IR Y1150 phosphorylation in Rat-1/hIR cells, various concentrations of insulin for 5 min, western blot, four-parameter logistic fit: 86.4 nM
Substance: insulin from bovine pancreas (ligand)
